Assay results from patent US20150080549A1 (Chugai, published 2015).
Starred links: 1 amine or outer side, 2 acyl side, 3 side chain; linkers in the order of their positions; H or OH if unused. Positions of bridges follow the written chain, without caps; N, C: chain ends. Non-standard residues stand in square brackets, D forms with d. γEtAbu = 4-(ethylamino)butanoic acid, CCN(CCCC(=O)[*:2])[*:1]; NMeAla(4-thiazolyl) = CN[C@@H](Cc1cscn1)C(=O)O; NMePhe(3-Cl) = CN[C@@H](Cc1cccc(Cl)c1)C(=O)O; Met(O2) = CS(=O)(=O)CC[C@H](N)C(=O)O; NMeF = CN[C@@H](Cc1ccccc1)C(=O)O; FlPu(urea) = not defined here; Phg = N[C@H](C(=O)O)c1ccccc1; NMeS = CN[C@@H](CO)C(=O)O; NMeA = CN[C@@H](C)C(=O)O; βAla = NCCC(=O)O; Sar = CNCC(=O)O

B1: Compound SP854 (peptide)
peptide: APVI[NMeF][Met(O2)]P[NMePhe(3-Cl)]V[Met(O2)]DP[Sar]S-OH
modifications: lactam N-11
SMILES: CC[C@H](C)[C@@H]1NC(=O)[C@H](C(C)C)NC(=O)[C@@H]2CCCN2C(=O)[C@H](C)NC(=O)C[C@@H](C(=O)N2CCC[C@H]2C(=O)N(C)CC(=O)N[C@@H](CO)C(=O)O)NC(=O)[C@H](CCS(C)(=O)=O)NC(=O)[C@H](C(C)C)NC(=O)[C@H](Cc2cccc(Cl)c2)N(C)C(=O)[C@@H]2CCCN2C(=O)[C@H](CCS(C)(=O)=O)NC(=O)[C@H](Cc2ccccc2)N(C)C1=O
notes: Chemically synthesized, HPLC purified
B2: Compound SP856 (peptide)
peptide: [γEtAbu]IVW[NMePhe(3-Cl)][Met(O2)]P[NMePhe(3-Cl)][dY][Met(O2)]D[NMeAla(4-thiazolyl)][NMeA]S-OH
modifications: lactam N-11
SMILES: CC[C@H](C)[C@@H]1NC(=O)CCCN(CC)C(=O)C[C@@H](C(=O)N(C)[C@@H](Cc2cscn2)C(=O)N(C)[C@@H](C)C(=O)N[C@@H](CO)C(=O)O)NC(=O)[C@H](CCS(C)(=O)=O)NC(=O)[C@@H](Cc2ccc(O)cc2)NC(=O)[C@H](Cc2cccc(Cl)c2)N(C)C(=O)[C@@H]2CCCN2C(=O)[C@H](CCS(C)(=O)=O)NC(=O)[C@H](Cc2cccc(Cl)c2)N(C)C(=O)[C@H](Cc2c[nH]c3ccccc23)NC(=O)[C@H](C(C)C)NC1=O
notes: as for B1
B3: Compound SP859 (peptide)
peptide: APVI[NMeF][Met(O2)]P[NMePhe(3-Cl)]V[Met(O2)]DP[Sar]S-{NH(CH2)2NMe2}
modifications: lactam N-11
notes: Made from Compound SP854 by amidation of the C-terminal carboxylic acid
B4: Compound SP855 (peptide)
peptide: AII[NMeAla(4-thiazolyl)]WP[NMePhe(3-Cl)][Met(O2)][dY][βAla]DP[NMePhe(3-Cl)]S-OH
modifications: lactam N-11
SMILES: CC[C@H](C)[C@@H]1NC(=O)[C@H](C)NC(=O)C[C@@H](C(=O)N2CCC[C@H]2C(=O)N(C)[C@@H](Cc2cccc(Cl)c2)C(=O)N[C@@H](CO)C(=O)O)NC(=O)CCNC(=O)[C@@H](Cc2ccc(O)cc2)NC(=O)[C@H](CCS(C)(=O)=O)NC(=O)[C@H](Cc2cccc(Cl)c2)N(C)C(=O)[C@@H]2CCCN2C(=O)[C@H](Cc2c[nH]c3ccccc23)NC(=O)[C@H](Cc2cscn2)N(C)C(=O)[C@H]([C@@H](C)CC)NC1=O
notes: as for B1
B5: SEQ ID NO: PE-4 (TNFR1 binder) peptide (peptide)
peptide: A[dY]IW[Met(O2)]S[Met(O2)][NMePhe(3-Cl)]V[NMeF]DT[NMePhe(3-Cl)]SGSGSGS-{FlPu(urea)}
modifications: lactam N-11; reading uncertain
notes: Translated in ECL Translation Solution T, cyclized and desulfurized; not isolated; also called translation product of template DNA DME-4
B6: SEQ ID NO: PE-6 (TNFR1 binder) peptide (peptide)
peptide: AP[Sar]VITV[NMeS][Phg]SD[NMeA][NMePhe(3-Cl)]SGSGSGS-{FlPu(urea)}
modifications: lactam N-11; reading uncertain
notes: Translated in ECL Translation Solution T, cyclized and desulfurized; not isolated; also called translation product of template DNA DME-6
B7: SEQ ID NO: PE-5 (TNFR1 binder) peptide (peptide)
peptide: AP[Sar]IIVS[NMeS][Phg][Phg]D[NMeAla(4-thiazolyl)]TSGSGSGS-{FlPu(urea)}
modifications: lactam N-11; reading uncertain
notes: Translated in ECL Translation Solution T, cyclized and desulfurized; not isolated; also called translation product of template DNA DME-5

Molecular target: T1, biotinylated Interleukin-6 receptor (IL-6R) (human, UniProt P08887 20-344, limits assumed, biotinylated (method of BMC biotechnology, 2008, 8, 41 and Protein Science, 1999, 8, 921-929); site not stated)
T1 construct: also called human IL-6 receptor; hIL-6R
T1 sequence (looked up): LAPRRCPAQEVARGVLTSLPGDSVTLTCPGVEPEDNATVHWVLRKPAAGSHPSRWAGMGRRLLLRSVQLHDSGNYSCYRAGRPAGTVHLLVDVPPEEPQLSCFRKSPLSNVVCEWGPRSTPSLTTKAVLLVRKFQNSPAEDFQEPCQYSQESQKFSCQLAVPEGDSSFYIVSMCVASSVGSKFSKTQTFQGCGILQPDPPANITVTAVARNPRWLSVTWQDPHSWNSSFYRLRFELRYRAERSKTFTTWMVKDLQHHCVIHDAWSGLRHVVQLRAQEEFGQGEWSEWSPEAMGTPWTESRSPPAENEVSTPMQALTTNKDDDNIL
Test: SPR, Biacore T200, 20 C; biotinylated IL-6R captured on sensor chip CAP, peptide as analyte; KD=koff/kon from curve fitting
Experimental: An SPR experiment for analyzing the interaction between synthetic peptides and IL-6R was conducted using Biacore T200 (GE healthcare) at 20° C. Synthetic peptides were added to the immobilized IL-6R, and the interaction was evaluated.
CAP reagent was immobilized on a Biacore sensor chip, Series S sensor chip CAP (GE healthcare), according to the instructions, and biotinylated IL-6R was further immobilized.
The obtained sensorgrams were analyzed using T200 evaluation software (GE healthcare) or Scrubber2 (Biologic software). First, solvent correction for DMSO and double reference (correction by subtracting sensorgrams of flow cells where IL-6R was not immobilized and sensorgrams in the case where the buffer was added) were carried out. Second, binding rate constants (kₒₙ) and dissociation rate constants (koff) were calculated from curve fitting to the corrected sensorgrams, and KDs were determined by the relational expression KD=koff/kₒₙ.

| Binder | Kd [µM] |
| --- | --- |
| B1 | 1.8 |
| B2 | 13 |
| B3 | 0.55 |
| B4 | 5.3 |

Molecular target: T2, biotinylated Recombinant Human TNFR1/Fc Chimera (SinoBiological, Catalog Number 10872-H03H) (human, UniProt P19438 22-211, biotinylated with EZ-Link NHS-PEG4-Biotin (Thermo scientific 21329); sites not stated)
T2 construct: Bought Fc chimera; also called tumor necrosis factor receptor 1; Fc part of the bought chimera not given
T2 sequence (looked up): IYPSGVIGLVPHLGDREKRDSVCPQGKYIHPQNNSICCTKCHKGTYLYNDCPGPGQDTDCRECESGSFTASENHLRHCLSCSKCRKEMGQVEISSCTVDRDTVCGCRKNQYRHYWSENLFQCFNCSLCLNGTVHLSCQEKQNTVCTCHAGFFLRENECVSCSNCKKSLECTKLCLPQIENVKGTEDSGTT
Test: ECL immunoassay (MSD): biotinylated target on streptavidin plate, translated FlPu(urea)-labelled cyclic peptide (Translation Solution T), anti-fluorescein and SULFO-TAG anti-mouse antibody; no-template control 293
Experimental: 0.5 μl of a 200 mM EDTA solution (pH 8.0, Nacalai, 14362-24) and 0.5 μl of a 100 mM TCEP solution (pH 6.6) were added to 5 μL of the translation mixture, and the mixture was incubated at 37° C. for 120 minutes to cause cyclization reaction. 11 μL of desulfurization buffer (15 mM cysteine, 36 mM TCEP) was added to the cyclization product, and the mixture was incubated at 42° C. for 1 minutes, after which 4 μL of 1 M VA-044 (Wako, CAS No. 27776-21-2) was added and the mixture was allowed to stand at 42° C. for 1 hour.
Immunoassay was carried out using the above peptide solution for ECL assay. 500 nM biotinylated target protein was added at 10 μL per well to MSD Streptavidin MULTI-ARRAY 384-well plate (Meso Scale Discovery, L25SB-1), and reaction was conducted at room temperature for 1 hour with shaking at 500 rpm to immobilize the target protein. 2% skim milk PBS was added at 50 μL per well, and blocking was carried out by allowing to stand at room temperature for 2 hours. The reaction solution was removed and the plate was washed with PBS containing 0.05% Tween 20 (PBST) three times, after which 10 μL of the peptide solution for ECL assay was added and the plate was shaken at room temperature for 50 minutes at 500 rpm. The reaction solution was removed and the plate was washed with PBST three times, after which 10 μL of IgG Fraction Monoclonal Mouse Anti-Fluorescein (Jackson ImmunoResearch, 200-002-037) diluted to 0.5 μg/mL with 2% skim milk PBS was added, and reaction was conducted at room temperature for 50 minutes with shaking at 500 rpm. […] The reaction solution was removed and the plate was washed with PBST three times, after which 35 μl, of 2× Read Buffer T (Meso Scale Discovery, R92TC-3) was added and measurement was carried out using SECTOR Imager 2400 (Meso Scale Discovery).

| Binder | ECL signal |
| --- | --- |
| B5 | 32000 |
| B6 | 3610 |
| B7 | 3760 |
